Measurements reported in paper PMC6650273 (Nature cell biology, 2019).

Molecular target: FLAG-Tor (Dictyostelium discoideum, UniProt Q86C65 1-2380)
Assay: pull-down

Sequence of FLAG-Tor (Q86C65 whole entry): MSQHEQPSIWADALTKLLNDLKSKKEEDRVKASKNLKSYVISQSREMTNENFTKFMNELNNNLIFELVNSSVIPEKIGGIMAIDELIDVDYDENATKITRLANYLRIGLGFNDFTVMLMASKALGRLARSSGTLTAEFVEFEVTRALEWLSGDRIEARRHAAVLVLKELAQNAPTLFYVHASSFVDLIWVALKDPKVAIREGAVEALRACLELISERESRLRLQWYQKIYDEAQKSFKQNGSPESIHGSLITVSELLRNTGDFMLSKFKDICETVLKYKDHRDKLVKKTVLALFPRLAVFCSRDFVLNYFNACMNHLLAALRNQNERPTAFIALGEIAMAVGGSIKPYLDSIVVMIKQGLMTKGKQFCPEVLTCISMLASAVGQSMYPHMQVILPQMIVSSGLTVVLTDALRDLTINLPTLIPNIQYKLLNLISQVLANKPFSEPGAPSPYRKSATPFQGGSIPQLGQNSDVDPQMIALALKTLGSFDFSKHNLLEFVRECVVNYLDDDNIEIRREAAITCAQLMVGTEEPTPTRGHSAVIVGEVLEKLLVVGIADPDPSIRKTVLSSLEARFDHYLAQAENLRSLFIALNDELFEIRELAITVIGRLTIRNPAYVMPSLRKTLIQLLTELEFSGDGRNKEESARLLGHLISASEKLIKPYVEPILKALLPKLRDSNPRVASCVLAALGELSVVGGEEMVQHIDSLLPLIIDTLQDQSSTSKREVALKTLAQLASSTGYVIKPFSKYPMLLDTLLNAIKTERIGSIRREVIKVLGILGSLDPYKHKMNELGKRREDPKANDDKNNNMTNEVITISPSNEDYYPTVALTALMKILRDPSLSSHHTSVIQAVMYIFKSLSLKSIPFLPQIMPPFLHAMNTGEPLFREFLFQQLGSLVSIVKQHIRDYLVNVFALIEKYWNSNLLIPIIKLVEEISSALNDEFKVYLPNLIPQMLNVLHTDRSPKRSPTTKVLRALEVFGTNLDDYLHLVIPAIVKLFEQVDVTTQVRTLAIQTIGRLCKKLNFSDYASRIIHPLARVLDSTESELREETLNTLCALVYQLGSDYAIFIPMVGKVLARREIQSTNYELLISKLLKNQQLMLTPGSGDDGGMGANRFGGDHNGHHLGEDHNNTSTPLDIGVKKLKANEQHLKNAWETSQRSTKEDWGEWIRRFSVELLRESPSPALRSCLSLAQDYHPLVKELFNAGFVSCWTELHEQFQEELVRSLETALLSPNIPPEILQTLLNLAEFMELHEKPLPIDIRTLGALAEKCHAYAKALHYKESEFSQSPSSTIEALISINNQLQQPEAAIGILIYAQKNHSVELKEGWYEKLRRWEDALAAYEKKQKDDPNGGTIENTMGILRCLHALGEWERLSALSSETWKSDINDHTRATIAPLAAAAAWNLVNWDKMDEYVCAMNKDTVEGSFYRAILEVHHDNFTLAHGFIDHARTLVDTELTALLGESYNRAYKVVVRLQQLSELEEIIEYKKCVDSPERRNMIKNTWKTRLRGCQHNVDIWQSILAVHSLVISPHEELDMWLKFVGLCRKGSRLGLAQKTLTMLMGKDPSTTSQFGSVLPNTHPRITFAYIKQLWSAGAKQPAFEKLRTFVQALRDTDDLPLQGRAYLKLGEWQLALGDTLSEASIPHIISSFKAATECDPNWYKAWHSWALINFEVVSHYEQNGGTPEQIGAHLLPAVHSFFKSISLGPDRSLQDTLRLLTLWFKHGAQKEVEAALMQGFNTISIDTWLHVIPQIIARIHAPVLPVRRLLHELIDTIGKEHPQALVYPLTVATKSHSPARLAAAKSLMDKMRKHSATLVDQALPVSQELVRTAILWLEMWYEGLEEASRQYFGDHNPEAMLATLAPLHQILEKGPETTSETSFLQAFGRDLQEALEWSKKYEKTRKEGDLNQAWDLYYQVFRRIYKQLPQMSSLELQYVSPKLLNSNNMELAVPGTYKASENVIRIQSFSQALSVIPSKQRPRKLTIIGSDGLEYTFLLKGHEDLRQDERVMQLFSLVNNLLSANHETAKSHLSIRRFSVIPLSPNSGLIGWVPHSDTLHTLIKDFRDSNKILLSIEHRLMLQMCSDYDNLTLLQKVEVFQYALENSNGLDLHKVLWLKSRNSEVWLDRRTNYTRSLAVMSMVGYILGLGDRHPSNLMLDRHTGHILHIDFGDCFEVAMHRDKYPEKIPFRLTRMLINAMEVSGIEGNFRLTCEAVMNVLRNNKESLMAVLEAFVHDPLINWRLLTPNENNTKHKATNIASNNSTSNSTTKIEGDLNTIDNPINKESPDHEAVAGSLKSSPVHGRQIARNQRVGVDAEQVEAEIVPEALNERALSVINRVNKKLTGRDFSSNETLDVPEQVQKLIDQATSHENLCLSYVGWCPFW

B1: GFP-RacE_(T25N), GDP-bound, purified after chemoattractant stimulation (Ser192 phosphorylated) (natural protein)
chain: MSEDQGSGATRVKLVVVGDGAVGKNCLLICYAQNDFPVDYVPTVFENYTATRKRGNEDIKVHLWDTAGQEEYDRLRPLSYPGADVVLLCFSTISQSSYEAIRDKWAPEVNHYIPDVPSILVGTKIDLREQQHPDPNSGKFEPITADMGISMQKQIKAKKYLEVSAKTRQGLEEVFSAAIEIVLESRGMDKKSQDGSSSASGVPSGDKPTKGKAGKKKSGCIIL
modifications: phosphoserine at 192 (chemoattractant-induced)
binding result: binds
